The assay concerns the target adeno-associated virus serotype 3B (AAV-3B) capsid protein subunit (adeno-associated virus serotype 3B). Put plainly: crystal structure.

This note sets out measurements from paper PMC2885149.

The stoichiometry N is the number of molecules, sites or subunits per partner or assembly.

In turn, “adeno-associated virus serotype 3B (AAV-3B) capsid protein subunit (natural protein)” showed a stoichiometry N of 60.
